Experimental data from the nanobody polyreactivity screen of Harvey et al. (2022).

Assay: yeast display, Sf9 membrane polyspecificity reagent, FACS + sequencing; frameworks hold sequencing errors
Method in brief: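 Sorting gates, low and high (top ~1%), were placed on anti-HA fluorescence to track expression and on streptavidin fluorescence to track reagent binding. A clone's polyreactivity label is taken from the gate it came out of. The reagent was 10% biotinylated, detergent-solubilized Sf9 membrane, applied for 1 hour at 4 °C to galactose-induced yeast display cells.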

| Sequence | polyreactivity (PSR sort gate) |
| --- | --- |
| QVKLVESGGGLVQAGGSLRLSCAASGRIFNWYAMGWYRQAPGKERELVAAITSGGSTNYADSVKGRFTISRDNAKNTVYLQMNSLKPEDTAVYFCNARGRFRGYRYYYWGQGTQVTVSS | high polyreactivity |
| QVKLVESGGGLVQAGGSLRLSCAASGRIFYYYAMGWYRPAPGKERELVAGITTGGGTNYADSVKGRFTISRDNAKNTVYLQMNSLKPEDTAVYYCATGTEGYSDDYGYWGQGTQVTVSS | low polyreactivity |
| QVKLVESGGGLVQAGGSLRLSCAASGRISFYYAMGWYRQAPGKERELVATISSSGGSTHYADSVKGRFTISRDNAKNTVYLQMNSLKPEDTAVYYCARDDSERIWLEQSGYWGQGTQVTVSS | low polyreactivity |
| QVKLVESGGGLVQAGGSLRLSCAASGRTFIYYAMGWYRQAPGKERELVAGITYSVGSTYYADSVKGRFTISRDNAKNTVYLQMNSLKPEVTAVYYCAAKPVGTYSRPHDYWGQGTQVTVSS | low polyreactivity |
| QVKLVESGGGLVQAGGSLRLSCAASGSIFQGYAMGWYRQAPGKERELVAAISGRGGSTYYADSVKGRFTISRDNAKNTVYLQMNSLKPEDTAVYYCNAPRYYWISFARWPASYYYWGQGTQVTVSS | high polyreactivity |
| QVKLVESGGGLVQAGGSLRLSCAASGSIFTYTIGWYRQAPGKESELVAVISRSGGRTYYADSVKGRFTISRDNAKNTVYLQMNSLKPEDTAVYYCAAEYYVDYYRTSRSFTRWRYEYWGQGTQVTVSS | high polyreactivity |
| QVKLVESGGGLVQAGGSLRLSCAASGSSFTNYAMGWYRQEPRKERELVAAITSVGSTYYADSVKGRFTISRDNAKNTVYLQMNSLKPEDTAVYYCNVVYRDQYNYWGQGTQVTVSS | low polyreactivity |
| QVKLVESGGGLVQAGGSLRLSCAASGSTFHLNAMGWYRPAPGKDRELVAANSWDGSSTSYADSVKGRFTISRDNAKNTVYLQMNSLKPEDTAVYFCAADDTLDRVPTTFIDGSPGYGYWGQGTQVTVSS | low polyreactivity |
| QVKLVESGGGLVQAGGSLRLSCAASGSTFSSYAMGWYRQAPGKERELVAAISSSGGTSTYADSVKGRFTISRDNAKNTVYLQMNSLKPEDTAVYYCAARQDRLLRDYRHDYWGQGTQVTVSS | high polyreactivity |
| QVKLVESGGGLVQAGGSLRLSCAASGSTINLYDMGSYIQAPGKERELVADISRGGSTNYADSVKGRFTITRDNAKNTVYLQMNSLIPEDTAVYYCAAFYFTYDFWTYSFAEYDYWGQGTQVTVSS | high polyreactivity |
| QVKLVESGGGLVQAGGSLRLSCAASGSTLRYYGMGWYRQAPGKERELVAAISSGGITNYADSVKGRFTISRDNAKNTVYLQMNSLKPEDTAVYYCAAYYTYTWFGYWGQGTQVTVSS | low polyreactivity |
| QVKLVESGGGLVQAGGSLRLSCAASGSTLYQYTMGWYRQAPGKERELVAGISRRGGSTYYAYSVKGRFTISRDNAKNTVYLQMNSLKPEDTAVYYCAKRPHYIAWYGYNGDYWGQGTQVTVSS | high polyreactivity |
| QVKLVESGGGLVQAGGSLRLSCAASGSTMSVNAMGWYRQAPGKERELVAAIDFDGGDTYYADSVKGRFTISRDNAKNTVYFQMNSLKPEDTAVYYCAADIGGQYDYLADDYWGQGTQVTVSS | low polyreactivity |
| QVKLVESGGGLVQAGGSLRLSCADSGFTFSSNGMCWYRPAPGKETELVAAITRRGGSTYYADSVKGRFTISRDNAKNTVYLQMNSLKPEDTAVYYCAKQLWDPKYDYWGQGTQVTVSS | high polyreactivity |
| QVKLVESGGGLVQAGGSLRLSCDASGFIFSLYAMGWYRQEHGKERDLVAAISKRGGSTNYADSVKGRFTISRDNAKNTVYLQMNSLKTEDTAVYYCAKARPVFLYDHWGQGTQLTVSS | high polyreactivity |
| QVKLVESGGGLVQAGGSLRLTCAASGFTFTPNAMGWYRQAPGKEMELVAAITRSSGRTYYADSVKGRFTISRDNAKNTVYLQMNSLKPEDTAVYYCAARYASTPYARFGFWGQGTQVTVSS | high polyreactivity |
| QVKLVESGGGLVQAGGSLRLTCAASGRIFEDYVMGWYIKAPGKERELVAGISGSGGITYYADSVKGRFTISRDNAKNTVYLQMNSLKPEDTAVYYCATAAASHKYGYWGQGTQVTVSS | low polyreactivity |
| QVKLVESGGGLVQAGGSLSLSCAASGSTIGGYAMGWYRQAPGKERELVAAIRRSGDSTYYADSVKGRFTISRDNAKNTVYLKMNRLKPEDTAVYYCAASYLHYRYRGRDYWGQGTQVTVSS | low polyreactivity |
| QVKLVESGGGLVQEGGSLRLSCAASGRIFGNYAMGWYRQAPGKERELVAAIDLSGDSTYYADSVKGRFTISRDNAKNTVYLQMNSLKPEDTAVYYCAATDWFSEYFWGQGTQVTVSS | low polyreactivity |
| QVKLVESGRGLVHAGGSLRLSSAASANTFPPNARGCYIPAPGKERELVSAISRSGVSTYYADSVKGRFTISRDNANNTVYLQMNSLKPEDTAVYYCAAPLIYTPLKYHYWGQGTQVTVSS | low polyreactivity |
| QVKLVESGRGLVQAGGSLRLSCAASGITFRSYAMGWYINATGKERELVATLSSSGGNTNYADSVKGRFTISRDNAKNTVYLQMNSLKPEDTAVYYCAAELWRYYYVVPGRYDDWGQGTQVTVSS | high polyreactivity |
| QVKLVETGGGLVQAGGSLRLSCAASGSTFGLYAMGWYRQAPGKERELVAAITWRGGRTYYADSVKGRFTISRDNAKNTVDLQMNSLKPEDTAVNFCAKGYDYYVRRYYYWGQGTQVTVSS | high polyreactivity |

| Sequence | polyreactivity (PSR sort gate) |
| --- | --- |
| QVKRVESGGGLVHAGGSLRLSCPASGRTVAKYAMGGYRQEPGKARELVAAITSSGGITYYAESVQGRYTISRDNAKNIVYLQMNSLKREDTAFYYCAVKTFQVGTFRRYYYWGQGTQVTVSS | high polyreactivity |
| QVKRVESGGVLVQAGGSLRLSCAASGFIFLLNDMGWYRQAHGKERDLVAAISRGGGSTYYADSVKGRFTISRDNAKNTVYLQMNSLKPEDTAVYYCAAKPGKTPLTGHRGPYDTGYGYCGQGTQVTVSS | low polyreactivity |
| QVLIEDSGGGLVQAGGSLRLSCAASGSIFYFYAMGWYRQAPGKERELVAAISYSVGSTYYADSVKGRFTISRVNAKNTVYLQMNSLKPEDTAVDYCAADYYYGAWDGYGDEKYYYWGQGTQVTVSS | low polyreactivity |
| QVLLQESGGGLVQAGGSLRLGCAASGTISPAYYMGRYHHAPGKEREFVAAITYGTNTYYADSVKGRFTISRDNAKNTVNLQMNSLKPADTAVYYCSATAGYNGAHDYWGQGTQVTVSS | low polyreactivity |
| QVLLQESGGGLVQAGGSLRLSCAASGSIFLFYTMGWYRQAPVKEREFVAGITLGTTTYNADSVKGRFTISRDNVKNTLYLQMNSLKPEDTAVYYCAVAVGHYTEFWYWGQGTQVTMSS | high polyreactivity |
| QVLLQESGGGLVQAVGSLRLGCAASGTISPAYDIGRNHLAPGREREFVAAMTYGTNSYYSDSVKGRFTMSRDNAKNTVFLKMTSLKTEDTAVFYFSATGGYNCAHDYWGQGTQVTVSS | low polyreactivity |
| QVLLVESGGGLVQAAGSLRLSCAASGSISIGYTMGWYIQAPGKERELVATISWSGGNTYYADSVKWRFTISRDNAKNTVYLQMNRLKPEDTAVYYCAAKSSTRGDYWGQGTQVTVSS | low polyreactivity |
| QVLLVESGGGLVQAGGSHRLSCAASGFIFWDYAKGGYRQAPGKERELVAAITSGGGSTYYADSVKGRFTISRDNAKNTVYLQMNSLKPEDTAVYYCNAVSWEGYDFDYWGQGTQVTVSS | high polyreactivity |
| QVLLVESGGGLVQAGGSLRLSCAASGRIFGYNTMGWYRQAPGKERELVASISYSGGGTYYADSVKGRFTISRDNAKNTVYLQMNSLKPEDTAVYYCNALSYGYDDAYGYWGQGTQVTVSS | low polyreactivity |
| QVLLVESGGGLVQAGGSLRLSCAASGYIIDVNAMGWYRQAPGKERELVASISSGTSTYYADSVKGRFTISRDNAKNTVYLQMNSLKPEDTAVYYCNAGVEFAASLYYSDNYDYWGQGTQVTVSS | low polyreactivity |
| QVLLVESGGGLVQAGGSLRLSCGASGITFAEYAMGWYRKAPGKEREFVAAISRRGGSTYYADSVKGRFTISRDNAKNTVYIQMNTLKPEDTAVYYCNRRYDTFRFEHDYDYWGQGTQVTVSS | low polyreactivity |
| QVLLVETGGGLVQAGGSLRLSCAASGLIFYDNMGWYRQAPGKERELVAAISSSGGSTSYADSVKGRFTISRDNAKNTVYLQMNSLKPEDTAVYYCAADSYPAYLGFVGFDYWGQGTQVTVSS | low polyreactivity |
| QVNLVESGGGLVQAGGSLRLSCAASGLIFFYAMGWYRQAPGKERELVAGISSGGNTNYGDSVKGRFTISRDNAKNTVYLQMNSLKPEDTAVYYCNARGFTGDHQWYLWARPLYDYWGQGTQVTVSS | high polyreactivity |
| QVNLVESGGGLVQAGGSLRLSCAASGRTFRFYVMGWYRQAPGKERELVAVIRYRGGSTYYADSVKGRFTISRDNAKNTVYLHMNSLKPEDTAVYYCNADFLLAGNEYDFWGQGTQVTVSS | high polyreactivity |
| QVPLEESGGGLVQAGGSLRLSCAASGFIIGLNAMGWYRQAPGKERELVAVITFSGGSTYYADSVKGRFTISRDNAKNTVFFQMNSLKPEDTAVYYCAARYYWYSVGYGYWGQGTQVTVSS | high polyreactivity |
| QVPLEESGGGLVQAGGSLRLSCAASGSIFMTYSMGWYRKAPGNERELVAAISWRGGSTYYADSVKGRFTISRDNAKNTVYLQMNSMKPVDTAVYYCAADYYRYGYQGSTTEDDYWGQGTLVTVSS | low polyreactivity |
| QVPLEESRGGLVQAGGSLRLSCAASGTIFVAYDMGWYRQAPGKERELVAAIDSVGRTNYADSVKGRFTISRDNAKNTVYLQMNSLKPEDTAVYYCNADQYYSFYDPDDYWGQGTQVTVSS | low polyreactivity |
| QVPLVESAGGLVQAGGSLRLSCAASGSTFYPYAMGWYRQAPGKERELVAAISSGGSTSYADSVKGRFTISRDNAKNTVYLQMNSLKPEDTEVYYCHASSPGAVPVYDYDYWGQGTQVTVSS | low polyreactivity |
| QVPLVESGGGLVQAGGSLRISCAACGIIFFPYAMGWYRQAPGKEREFVAAITSRGGSTYYADSVKGRFTISRDNAKNTVYLQMNSLKPEDTAVYFCAADHLGRARGPWRYNYWGQGTQVTVSS | low polyreactivity |
| QVPLVESGGGLVQAGGSLRLMCAASGRIFALYAMGWYRQAPGKERELVAAISWSAGRTYYADSVKGRFTISRDNAKNTVYLQMNSLKPEDTAVYYCAADTGRQYDYWGQGTQVTVSS | high polyreactivity |
| QVPLVESGGGLVQAGGSLRLSCAASGRISGYYDMGWYRQAPGKERELVATITSDGGTNYADSVKGRFTISRDNAKNTVYLQMNSLKPEDTAVYYCAAYGWYTKWHFAFGYWGQGTQVTVSS | low polyreactivity |
